The test system of test [1] is platelet count. Nature of the test: Effectiveness of PTH derivative, daily administration to mouse (peripheral platelet count). It is filed as in vivo. To be noted: C57B1/6N mice, 200 μg/kg subcutaneous once a day for six days, 24 h after final administration; FIG. 3. The protocol: Ten-week old male C57B1/6N mice as purchased from Japan Charles River Co., Ltd. were used in the experiment.
Drug solutions to be administered were prepared basically from human PTH(1-84) and human PTH(1-34) by the same procedure as in Example 1 to give a drug concentration of 20 μg/mL.
Eighteen mice were divided into three groups, which were administered subcutaneously with the two drug solutions and a control (citrate buffer) for six days on a once-a-day basis in a volume of 10 mL/kg. […] The administration was initiated at 10 a.m.
After 24 h of the final administration, a blood sample was withdrawn from each mouse through the orbital vein. Peripheral corpuscle counts were obtained with an automatic corpuscle counter F-800 (TOA MEDICAL ELECTRONICS CO., LTD)

Test [2] concerns BFU-E (precursor cells of erythrocytes). To be noted: report by Meytes et al, J. Clin. Invest. Vol. 67, 1263-1269:1981; cited from earlier work.
The subject of test [3] is platelet count. Description: Test for daily administration to rabbit (platelet count). It is filed as in vivo. To be noted: three rabbits, FIG. 4. As to the method: Six 12-15 week old male Japanese albino rabbits JW/CSK were used in the experiment. The animals were individually kept in aluminum rabbit bracket cages Rb-1 (350^w×500^d×350^h mm) in a vavarium in a specific pathogen-free environment under the following conditions: temperature, 24±2° C.; humidity, 50±10%; illumination, light turned on at 5:00 and turned off at 19:00; ventilation, 15 changes/hr. Each animal was supplied with 120 g of a radiation-sterilized feed for rabbits RM (purchased from Funahashi Farm) per day. The animals were also allowed to drink to tap water ad libitum from an automatic water feeder.
Human PTH(1-84) was administered in a volume of 2 mL/vial at a concentration of 200 μg/mL. A solvent was also supplied in a volume of 2 mL/vial. Both the drug and the control were stored at −135° C. until use.
PTH (200 μg/kg) was administered to the rabbits subcutaneously at the back of their neck for 13 consecutive days. The solvent was similarly administered in the same volume as the dose of a rh-PTH solution calculated from their body weight.
Blood samples (0.5 mL) were withdrawn from the rabbits through the lateral auricular vein before the administration and on days 2, 6, 9 and 13 during the administration period. […]

The subject of the next test is platelet counts. Description: Test for single-dose administration to mouse (peripheral platelet count). It is filed as in vivo. Particulars: C57B1/6N mice, single dose 10 μg/kg through the tail vein, 6 and 9 h after the administration; FIG. 1. The protocol:
Nine-week old male C57B1/6N mice as purchased from Japan Charles River Co. Ltd. were used in the experiment.
Human PTH(1-84) was dissolved in a citrate buffer (pH 5; containing 0.05% of Tween 80) at final concentrations of 1, 0.2 and 0.04 ˜g/mL so as to prepare the drug solutions to be administered.
Each of the thus prepared drug solutions and a control (citrate buffer) was administered to 15 mice through the tail vein in a volume of 10 mL/kg. […] The administration was initiated at 10 a.m.
After 3, 6 and 9 hours of the administration, five mice were picked up at random from each group of animals and blood samples were withdrawn through the orbital vein. At 10 a.m. on the same day, separate blood samples were taken from untreated mice (four in number) to obtain the preadministration value. Peripheral corpuscle counts were obtained with an automatic corpuscle counter F-800 (TOA MEDICAL ELECTRONICS CO., LTD.)

The test system of test [4] is CFU-GM (precursor cells of granulocytes and macrophages). To be noted: report by Meytes et al, J. Clin. Invest. Vol. 67, 1263-1269:1981; cited from earlier work.
The test system of test [5] is platelet count. Nature of the test: Test for daily administration to mouse (peripheral platelet count). Format: in vivo. To be noted: C57B1/6N mice, subcutaneous once a day, FIG. 2. As to the method: Nine-week old male C57B1/6N mice as purchased from Japan Charles River Co., Ltd. were used in the experiment.
Drug solutions to be administered were prepared basically by the same procedure as in Example 1 to give drug concentrations of 5, 20 and 80 μg/mL.
The mice under test were divided into four groups, which were administered subcutaneously with the three drug solutions and a control (citrate buffer) once a day in a volume of 10 mL/kg. […] The administration was initiated at 10 a.m.
On days 5, 7 and 9 after the start of administration, five or six mice were picked up at random from each group of animals and blood samples were withdrawn through the orbital vein. The sampling of blood was timed to occur 24 h of the final administration. Separate blood samples were taken from untreated mice (five in number) to obtain the value for normal mouse. Peripheral corpuscle counts were obtained with an automatic corpuscle counter F-800(TOA MEDICAL ELECTRONICS CO., LTD.).

As for “human PTH(1-34) (SVSEIQLMHNLGKHLNSMERVEWLRKKLQDVHNF; Parathyroid hormone; UniProt P01270 32-65, looked up, fragment) [PTH(134), partial peptide of PTH composed of 34 amino acids from the N terminus; purchased from Peptide Institute, Inc]”, in the test with platelet count [1], the “platelet increasing action compared with PTH(1-84)” value is reported as “comparable platelet increasing action to PTH(1-84)”.

B1: human PTH(1-84) (protein, UniProt P01270 32-115, looked up)
Parathyroid hormone: SVSEIQLMHNLGKHLNSMERVEWLRKKLQDVHNFVALGAPLAPRDAGSQRPRKKEDNVLVESHEKSLGEADKADVNVLTKAKSQ
modifications: Parathyroid hormone
On to B1, for which the “in vitro colony formation by BFU-E” value in test [2] is “interfered with”. Moreover, the “platelet count on day 13” value with platelet count [3] (200 μg/kg subcutaneous daily for 13 days, day 13) is listed as “substantially returned to the initial level”. For the same molecule, the “platelet count relative to the initial value, increase from day 2 until day 6” value in the test with platelet count [3] (200 μg/kg subcutaneous daily) is listed as “two to four”. For the same molecule, in the test with platelet counts, the “platelet counts versus control” value is reported as “significant increase in platelet counts over the control”. Besides, in test [4], the “in vitro colony formation by CFU-GM” value is recorded as “interfered with”. In the test on platelet count [5] (200 and 800 μg/kg groups only, day 5, 24 h after final administration), the “platelet count versus control, day 5” value was “tendency to increase”. The “platelet count versus control, day 7” value with platelet count [5] (all treated groups (50, 200 and 800 μg/kg), day 7) is on record as “significantly higher in platelet count than the control”.

The record behind these values is patent US20020058626A1, “Agents for preventing and treating thrombocytopenia” (CHUGAI SEIYAKU KABUSHIKI KAISHA, priority 1996, published 2002).
